In patent US20100075898A1 (BEN GURION UNIVERSITY OF THE NEGEV RESEARCH AND DEVELOPMENT …, published 2010):

How the values were obtained:
[1] = target: T1, native mVDAC1 (mouse VDAC1)
T1 chain: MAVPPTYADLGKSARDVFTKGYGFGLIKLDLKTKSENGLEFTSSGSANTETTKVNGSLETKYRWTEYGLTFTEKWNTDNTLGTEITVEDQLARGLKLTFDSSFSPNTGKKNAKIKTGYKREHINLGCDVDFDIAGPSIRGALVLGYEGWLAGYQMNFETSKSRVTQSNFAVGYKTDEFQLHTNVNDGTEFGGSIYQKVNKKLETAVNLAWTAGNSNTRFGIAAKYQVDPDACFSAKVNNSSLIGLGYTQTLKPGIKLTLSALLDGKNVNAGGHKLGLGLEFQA

[2] = target: T2, Δ(1-26)mVDAC1 (N-terminal truncated mouse VDAC1 lacking amino acids 1-26)
T2 chain: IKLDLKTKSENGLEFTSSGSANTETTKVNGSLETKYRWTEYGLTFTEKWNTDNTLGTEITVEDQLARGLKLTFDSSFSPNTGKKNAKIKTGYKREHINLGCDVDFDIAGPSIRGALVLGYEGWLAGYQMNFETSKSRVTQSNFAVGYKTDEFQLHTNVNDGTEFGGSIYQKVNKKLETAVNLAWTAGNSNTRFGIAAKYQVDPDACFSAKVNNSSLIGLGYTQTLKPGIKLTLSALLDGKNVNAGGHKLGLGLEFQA

[3] = target: T3, purified rat brain HK-I (Hexokinase 1) (rat, UniProt P05708 1-918); assay: channel currents of planar-lipid-bilayer-reconstituted mVDAC1 before and after addition of HK-I (28 mU/ml)
T3 construct: Purified from rat brain; immobilised on the SPR chip or added (28 mU/ml) to bilayer-reconstituted VDAC1; also called HK-1
T3 sequence (looked up): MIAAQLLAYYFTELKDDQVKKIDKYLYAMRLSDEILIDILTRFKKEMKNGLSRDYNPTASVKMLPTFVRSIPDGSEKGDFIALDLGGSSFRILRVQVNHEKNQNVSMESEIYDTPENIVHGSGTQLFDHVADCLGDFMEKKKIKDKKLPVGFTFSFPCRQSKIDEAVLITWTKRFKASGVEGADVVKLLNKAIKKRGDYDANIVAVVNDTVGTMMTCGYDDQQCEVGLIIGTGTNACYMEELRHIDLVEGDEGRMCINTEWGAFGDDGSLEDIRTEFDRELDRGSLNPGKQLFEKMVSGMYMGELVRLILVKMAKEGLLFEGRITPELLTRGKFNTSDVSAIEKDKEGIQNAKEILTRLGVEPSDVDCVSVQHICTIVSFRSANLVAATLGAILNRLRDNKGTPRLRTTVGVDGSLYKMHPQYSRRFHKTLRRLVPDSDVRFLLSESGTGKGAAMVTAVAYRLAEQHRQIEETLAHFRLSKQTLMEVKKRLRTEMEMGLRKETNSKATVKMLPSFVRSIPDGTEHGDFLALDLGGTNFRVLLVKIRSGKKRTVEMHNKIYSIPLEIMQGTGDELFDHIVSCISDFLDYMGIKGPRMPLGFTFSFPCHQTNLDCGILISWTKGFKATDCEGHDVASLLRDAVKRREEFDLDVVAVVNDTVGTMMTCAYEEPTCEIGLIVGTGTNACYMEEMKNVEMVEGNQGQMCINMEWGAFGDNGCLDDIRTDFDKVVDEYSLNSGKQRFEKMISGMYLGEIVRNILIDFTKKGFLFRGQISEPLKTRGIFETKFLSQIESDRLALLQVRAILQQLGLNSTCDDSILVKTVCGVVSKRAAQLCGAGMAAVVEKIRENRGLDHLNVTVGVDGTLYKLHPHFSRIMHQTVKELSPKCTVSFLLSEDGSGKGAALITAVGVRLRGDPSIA
Description: (§1) The dashed lines indicate the zero and the maximal current levels.
(§2) Briefly, PLB were prepared from soybean asolectin dissolved in n-decane (50 mg/ml) in a chamber containing 10 mM Hepes/KOH, pH 7.4 and 0.5 or 1M NaCl (cis/trans). Only PLBs with a resistance greater than 100 GΩ were used. Purified VDAC (about 1 ng) was added to the chamber defined as the cis side. After insertion of one or more channels into the PLB, excess protein was removed by perfusion of the cis chamber with 20 volumes of a same solution. Currents were recorded under voltage-clamp mode using a Bilayer Clamp amplifier (Warner Instruments, Hamden, Conn.). Currents were measured with respect to the trans side of the membrane (ground). The currents were low-pass filtered at 1 kHz, using a Bessal filter (Frequency Devices, Haverhill, Mass.) and digitized on-line using a Digidata 1200 interface board and pCLAMP 6 software (Axon Instruments). Sigma Plot 2000 scientific software was used for data analyses. Experiments were performed at 23-25° C. […] N-terminal VDAC1 peptides were diluted in running buffer (150 mM NaCl, 0.005% Tween-20, 4% (V/V) DMSO, 10 mM PBS, pH, 7.4) and injected onto the sensor chip at varying concentrations at a flow rate of 40 μl/min at 25° C.

[4] = target: T3, purified rat brain HK-I (Hexokinase 1); assay: channel currents of planar-lipid-bilayer-reconstituted VDAC1 before and after addition of HK-I
Description: as §1, §2

B1: purified rat brain HK-I (Hexokinase 1) (protein)
chain: MIAAQLLAYYFTELKDDQVKKIDKYLYAMRLSDEILIDILTRFKKEMKNGLSRDYNPTASVKMLPTFVRSIPDGSEKGDFIALDLGGSSFRILRVQVNHEKNQNVSMESEIYDTPENIVHGSGTQLFDHVADCLGDFMEKKKIKDKKLPVGFTFSFPCRQSKIDEAVLITWTKRFKASGVEGADVVKLLNKAIKKRGDYDANIVAVVNDTVGTMMTCGYDDQQCEVGLIIGTGTNACYMEELRHIDLVEGDEGRMCINTEWGAFGDDGSLEDIRTEFDRELDRGSLNPGKQLFEKMVSGMYMGELVRLILVKMAKEGLLFEGRITPELLTRGKFNTSDVSAIEKDKEGIQNAKEILTRLGVEPSDVDCVSVQHICTIVSFRSANLVAATLGAILNRLRDNKGTPRLRTTVGVDGSLYKMHPQYSRRFHKTLRRLVPDSDVRFLLSESGTGKGAAMVTAVAYRLAEQHRQIEETLAHFRLSKQTLMEVKKRLRTEMEMGLRKETNSKATVKMLPSFVRSIPDGTEHGDFLALDLGGTNFRVLLVKIRSGKKRTVEMHNKIYSIPLEIMQGTGDELFDHIVSCISDFLDYMGIKGPRMPLGFTFSFPCHQTNLDCGILISWTKGFKATDCEGHDVASLLRDAVKRREEFDLDVVAVVNDTVGTMMTCAYEEPTCEIGLIVGTGTNACYMEEMKNVEMVEGNQGQMCINMEWGAFGDNGCLDDIRTDFDKVVDEYSLNSGKQRFEKMISGMYLGEIVRNILIDFTKKGFLFRGQISEPLKTRGIFETKFLSQIESDRLALLQVRAILQQLGLNSTCDDSILVKTVCGVVSKRAAQLCGAGMAAVVEKIRENRGLDHLNVTVGVDGTLYKLHPHFSRIMHQTVKELSPKCTVSFLLSEDGSGKGAALITAVGVRLRGDPSIA
channel activity (currents) of bilayer-reconstituted VDAC1 [1]: addition of HK-I to bilayer-reconstituted native VDAC1 induced the channel to fluctuate between the fully open, sub-conducting state to a stable, long-lived low-conducting state | channel activity (currents) of bilayer-reconstituted VDAC1 [2]: HK-I had no effect on channel activity of the truncated version of VDAC1

B2: native mVDAC1 (mouse VDAC1) (other)
chain: MAVPPTYADLGKSARDVFTKGYGFGLIKLDLKTKSENGLEFTSSGSANTETTKVNGSLETKYRWTEYGLTFTEKWNTDNTLGTEITVEDQLARGLKLTFDSSFSPNTGKKNAKIKTGYKREHINLGCDVDFDIAGPSIRGALVLGYEGWLAGYQMNFETSKSRVTQSNFAVGYKTDEFQLHTNVNDGTEFGGSIYQKVNKKLETAVNLAWTAGNSNTRFGIAAKYQVDPDACFSAKVNNSSLIGLGYTQTLKPGIKLTLSALLDGKNVNAGGHKLGLGLEFQA
notes: Native full-length mouse VDAC1 expressed in porin-less yeast, purified and reconstituted into planar lipid bilayers; also called native VDAC1; bilayer-reconstituted native VDAC1
binding result [3]: binds

B3: Δ(1-26)mVDAC1 (N-terminal truncated mouse VDAC1 lacking amino acids 1-26) (other)
chain: IKLDLKTKSENGLEFTSSGSANTETTKVNGSLETKYRWTEYGLTFTEKWNTDNTLGTEITVEDQLARGLKLTFDSSFSPNTGKKNAKIKTGYKREHINLGCDVDFDIAGPSIRGALVLGYEGWLAGYQMNFETSKSRVTQSNFAVGYKTDEFQLHTNVNDGTEFGGSIYQKVNKKLETAVNLAWTAGNSNTRFGIAAKYQVDPDACFSAKVNNSSLIGLGYTQTLKPGIKLTLSALLDGKNVNAGGHKLGLGLEFQA
notes: Expressed in porin-less yeast, purified and reconstituted into planar lipid bilayers; also called N-terminus truncated protein; truncated version of VDAC1
binding result [4]: no binding (tested: 28 mU/ml)
